Ends that are not written are not given here.
Legend:
[1] = biological target: D674A/wt TAP complex (human TAP1 D674A with wt TAP2) (human) (UniProt Q03519)
[2] = biological target: wild-type TAP (human TAP1/TAP2 complex) (human) (UniProt Q03518)
P36370 [3] = assay: AUC; sedimentation velocity, with ATP; 33 μM protein, 40,000 r.p.m., 10 °C, 14 h; 20 mM Tris pH 8.0, 50 mM NaCl, 5 mM MgCl2; c(S) model (Sedfit)
[4] = biological target: the molecule itself; assay: as above
P36370 [5] = assay: AUC; sedimentation velocity, with ADP; 33 μM protein, 40,000 r.p.m., 10 °C, 14 h; 20 mM Tris pH 8.0, 50 mM NaCl, 5 mM MgCl2; c(S) model (Sedfit)
[6] = biological target: the molecule itself; assay: AUC; sedimentation equilibrium, with ADP; 12,000, 15,000 and 22,000 r.p.m., 10 °C; 3, 11 and 33 μM protein; 20 mM Tris pH 8.0, 50 mM NaCl, 5 mM MgCl2; monomer-dimer self-association model (SedPhat); dimer to monomers
[7] = biological target: the molecule itself; assay: AUC; sedimentation equilibrium, with ATP; 12,000, 15,000 and 22,000 r.p.m., 10 °C; 3, 11 and 33 μM protein; 20 mM Tris pH 8.0, 50 mM NaCl, 5 mM MgCl2; monomer-dimer self-association model (SedPhat); dimer to monomers
[8] = substrate: Nc1ncnc2c1ncn2[C@@H]1O[C@H](COP(=O)(O)OP(=O)(O)OP(=O)(O)O)[C@@H](O)[C@H]1O; assay: ATP-dependent transport of RRYC(FL488)KSTEL in proteoliposomes; assay type: biochemical, Homo sapiens; settings: peptide 1 μM, Mg2+, pH 7.4, 37 °C
From the text: ATP-dependent transport of RRYC(FL488)KSTEL in proteoliposomes on TAP (TAP1/TAP2 complex; wt TAP) | the Michaelis–Menten kinetics for peptide transport by wt TAP and D674A/wt are equal

Binder | EC50 of lumenal peptide accumulation in proteoliposomes after 1 h at different external peptide concentrations, given as Kd of a low-affinity lumenal peptide-binding site [1] [µM] | lumenal peptide concentration reached in proteoliposomes at high external peptide (for example 100 μM): trans-inhibition [1] [µM] | lumenal peptide concentration reached in proteoliposomes at high external peptide (for example 100 μM): trans-inhibition [2] [µM] | 2nd/1st ratio (dimer to monomer peaks) (P36370 [3]) | stoichiometry N [4] | 2nd/1st ratio (dimer to monomer peaks) (P36370 [5]) | Kd [6] [µM] | Kd [7] [µM] | Km [8] [µM]
RRYC(Atto633)KSTEL [Atto633-labelled peptide RRYC(AT633)KSTEL] | 10.7 | < 16 | < 16 |  |  |  |  |  | 
rat TAP1-NBD Walker B mutant (D645N) (domain or fragment, Model system for NBD homodimerisation; also called Walker B D645N; hydrolysis-deficient Walker B mutant; source: E. coli BL21(DE3), purified (Ni-NTA, Superdex200)) SPLSGSLAPLNMKGLVKFQDVSFAYPNHPNVQVLQGLTFTLYPGKVTALVGPNGSGKSTVAALLQNLYQPTGGKVLLDGEPLVQYDHHYLHTQVAAVGQEPLLFGRSFRENIAYGLTRTPTMEEITAVAMESGAHDFISGFPQGYDTEVGETGNQLSGGQRQAVALARALIRKPRLLILDNATSALDAGNQLRVQRLLYESPEWASRTVLLITQQLSLAERAHHILFLKEGSVCEQGTHLQLMERGGCYRSMVEALAAPSD |  |  |  | 2.61 | 2 | 0.68 | 111 | 22.4 | 
rat TAP1-NBD Walker B/D-loop double mutant (D645N/D651A) (domain or fragment, D651A of rat TAP1 is equivalent to D674A of human TAP1; also called Walker B D645N/D-loop D651A; rat TAP1 NBD D645N/D651A; source: E. coli BL21(DE3), purified (Ni-NTA, Superdex200)) SPLSGSLAPLNMKGLVKFQDVSFAYPNHPNVQVLQGLTFTLYPGKVTALVGPNGSGKSTVAALLQNLYQPTGGKVLLDGEPLVQYDHHYLHTQVAAVGQEPLLFGRSFRENIAYGLTRTPTMEEITAVAMESGAHDFISGFPQGYDTEVGETGNQLSGGQRQAVALARALIRKPRLLILDNATSALAAGNQLRVQRLLYESPEWASRTVLLITQQLSLAERAHHILFLKEGSVCEQGTHLQLMERGGCYRSMVEALAAPSD |  |  |  | 0.11 |  | 0.26 | 164 | 170 | 
TAP (TAP1/TAP2 complex; wt TAP) (Homo sapiens) (protein, full-length heterodimer from Sf9 insect cells (baculovirus), purified and reconstituted in proteoliposomes, or in membranes) chain 1: MASSRCPAPRGCRCLPGASLAWLGTVLLLLADWVLLRTALPRIFSLLVPTALPLLRVWAVGLSRWAVLWLGACGVLRATVGSKSENAGAQGWLAALKPLAAALGLALPGLALFRELISWGAPGSADSTRLLHWGSHPTAFVVSYAAALPAAALWHKLGSLWVPGGQGGSGNPVRRLLGCLGSETRRLSLFLVLVVLSSLGEMAIPFFTGRLTDWILQDGSADTFTRNLTLMSILTIASAVLEFVGDGIYNNTMGHVHSHLQGEVFGAVLRQETEFFQQNQTGNIMSRVTEDTSTLSDSLSENLSLFLWYLVRGLCLLGIMLWGSVSLTMVTLITLPLLFLLPKKVGKWYQLLEVQVRESLAKSSQVAIEALSAMPTVRSFANEEGEAQKFREKLQEIKTLNQKEAVAYAVNSWTTSISGMLLKVGILYIGGQLVTSGAVSSGNLVTFVLYQMQFTQAVEVLLSIYPRVQKAVGSSEKIFEYLDRTPRCPPSGLLTPLHLEGLVQFQDVSFAYPNRPDVLVLQGLTFTLRPGEVTALVGPNGSGKSTVAALLQNLYQPTGGQLLLDGKPLPQYEHRYLHRQVAAVGQEPQVFGRSLQENIAYGLTQKPTMEEITAAAVKSGAHSFISGLPQGYDTEVDEAGSQLSGGQRQAVALARALIRKPCVLILDDATSALDANSQLQVEQLLYESPERYSRSVLLITQHLSLVEQADHILFLEGGAIREGGTHQQLMEKKGCYWAMVQAPADAPE chain 2: MRLPDLRPWTSLLLVDAALLWLLQGPLGTLLPQGLPGLWLEGTLRLGGLWGLLKLRGLLGFVGTLLLPLCLATPLTVSLRALVAGASRAPPARVASAPWSWLLVGYGAAGLSWSLWAVLSPPGAQEKEQDQVNNKVLMWRLLKLSRPDLPLLVAAFFFLVLAVLGETLIPHYSGRVIDILGGDFDPHAFASAIFFMCLFSFGSSLSAGCRGGCFTYTMSRINLRIREQLFSSLLRQDLGFFQETKTGELNSRLSSDTTLMSNWLPLNANVLLRSLVKVVGLYGFMLSISPRLTLLSLLHMPFTIAAEKVYNTRHQEVLREIQDAVARAGQVVREAVGGLQTVRSFGAEEHEVCRYKEALEQCRQLYWRRDLERALYLLVRRVLHLGVQMLMLSCGLQQMQDGELTQGSLLSFMIYQESVGSYVQTLVYIYGDMLSNVGAAEKVFSYMDRQPNLPSPGTLAPTTLQGVVKFQDVSFAYPNRPDRPVLKGLTFTLRPGEVTALVGPNGSGKSTVAALLQNLYQPTGGQVLLDEKPISQYEHCYLHSQVVSVGQEPVLFSGSVRNNIAYGLQSCEDDKVMAAAQAAHADDFIQEMEHGIYTDVGEKGSQLAAGQKQRLAIARALVRDPRVLILDEATSALDVQCEQALQDWNSRGDRTVLVIAHRLQTVQRAHQILVLQEGKLQKLAQL |  |  |  |  |  |  |  |  | 99 ± 24

From article PMC4242082, “Mechanistic determinants of the directionality and energetics of active export by a heterodimeric ABC transporter” (Nature Communications, 2014)
